The test concerns the target in vitro-polymerized and paclitaxel-stabilized microtubules (UniProt P02554). As to the kind of experiment: co-sedimentation; varied concentrations of purified His-TbSpef1 incubated with in vitro-assembled, paclitaxel-stabilized microtubules at room temperature for 30 min; diluted in cushion buffer (80 mM PIPES pH 7.0, 1 mM MgCl2, 1 mM EGTA, 60% glycerol, 20 uM paclitaxel); 100,000 x g, 30°C, 30 min; pellets and supernatants immunoblotted.

Consider 1 substance from article PMC7291619.

in vitro-polymerized and paclitaxel-stabilized microtubules, sequence (P68363 whole entry, chain 1 of 2): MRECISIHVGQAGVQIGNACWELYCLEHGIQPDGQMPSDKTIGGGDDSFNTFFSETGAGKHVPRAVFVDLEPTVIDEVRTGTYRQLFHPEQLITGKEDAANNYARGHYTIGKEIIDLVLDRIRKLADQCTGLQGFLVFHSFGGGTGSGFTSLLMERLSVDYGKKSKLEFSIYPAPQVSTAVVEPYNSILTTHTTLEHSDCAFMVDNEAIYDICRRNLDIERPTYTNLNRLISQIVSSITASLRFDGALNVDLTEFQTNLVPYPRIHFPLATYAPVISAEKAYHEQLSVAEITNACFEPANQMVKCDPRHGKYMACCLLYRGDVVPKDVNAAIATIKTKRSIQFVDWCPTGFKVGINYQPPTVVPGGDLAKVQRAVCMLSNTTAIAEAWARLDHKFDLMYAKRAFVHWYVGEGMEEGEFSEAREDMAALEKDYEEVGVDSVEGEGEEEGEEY
in vitro-polymerized and paclitaxel-stabilized microtubules, sequence (P02554 whole entry, chain 2 of 2): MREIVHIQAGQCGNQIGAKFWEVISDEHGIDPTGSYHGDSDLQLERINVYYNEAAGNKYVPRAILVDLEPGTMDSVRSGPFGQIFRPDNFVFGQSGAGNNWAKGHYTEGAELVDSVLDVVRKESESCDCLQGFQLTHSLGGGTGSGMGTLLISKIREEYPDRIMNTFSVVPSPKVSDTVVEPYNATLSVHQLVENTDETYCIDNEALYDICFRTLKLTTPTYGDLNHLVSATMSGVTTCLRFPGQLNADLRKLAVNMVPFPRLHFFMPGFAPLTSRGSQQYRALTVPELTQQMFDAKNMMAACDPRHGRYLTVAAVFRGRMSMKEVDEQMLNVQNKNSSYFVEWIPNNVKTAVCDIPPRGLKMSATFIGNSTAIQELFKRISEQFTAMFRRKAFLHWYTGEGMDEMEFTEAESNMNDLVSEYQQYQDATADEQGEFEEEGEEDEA

Consider His-TbSpef1 (natural protein), for which the stoichiometry N (TbSpef1 per α/β-tubulin dimer) was greater than 1.
